Assay results from US20100260668A1 (published 2010).

B1: DVD643 (bispecific antibody, human IgG1, kappa)
heavy: not shown
light: DIQMTQSPSSVSASVGDRVTITCRASQGISSWLAWYQQKPGKAPNLLIYEASSLQSGVPSRFGGSGSGTDFTLTISSLQPEDFATYYCQQANGFPWTFGQGTKVEIKRTVAAPSVFIFPPDIQMTQSPSSLSASVGDRVTITCRASQDVSTAVAWYQQKPGKAPKLLIYSASFLYSGVPSRFSGSGSGTDFTLTISSLQPEDFATYYCQQSYTTPPTFGQGTKVEIKRTVAAPSVFIFPPSDEQLKSGTASVVCLLNNFYPREAKVQWKVDNALQSGNSQESVTEQDSKDSTYSLSSTLTLSKADYEKHKVYACEVTHQGLSSPVTKSFNRGEC
notes: DVD-Ig; HC linker long, LC linker long; vectors V1/V2
B2: DVD645 (bispecific antibody, human IgG1, kappa)
heavy: not shown
light: DIQMTQSPSSVSASVGDRVTITCRASQGISSWLAWYQQKPGKAPNLLIYEASSLQSGVPSRFGGSGSGTDFTLTISSLQPEDFATYYCQQANGFPWTFGQGTKVEIKRTVAAPSVFIFPPDIQMTQSPSSLSASVGDRVTITCRASQVIRRSLAWYQQKPGKAPKLLIYAASNLASGVPSRFSGSGSGTDFTLTISSLQPEDFATYYCQQSNTSPLTFGQGTKVEIKRTVAAPSVFIFPPSDEQLKSGTASVVCLLNNFYPREAKVQWKVDNALQSGNSQESVTEQDSKDSTYSLSSTLTLSKADYEKHKVYACEVTHQGLSSPVTKSFNRGEC
notes: DVD-Ig; N-term VD AB012 (HGF), C-term VD AB071 (VEGF); HC linker long, LC linker long; vectors V1/V2
B3: DVD649 (bispecific antibody, human IgG1, kappa)
heavy: not shown
light: DIQMTQSPSSVSASVGDRVTITCRASQGISSWLAWYQQKPGKAPNLLIYEASSLQSGVPSRFGGSGSGTDFTLTISSLQPEDFATYYCQQANGFPWTFGQGTKVEIKRTVAAPDIQMTQSPSSLSASVGDRVTITCRASQDVSTAVAWYQQKPGKAPKLLIYSASFLYSGVPSRFSGSGSGTDFTLTISSLQPEDFATYYCQQSYTTPPTFGQGTKVEIKRTVAAPSVFIFPPSDEQLKSGTASVVCLLNNFYPREAKVQWKVDNALQSGNSQESVTEQDSKDSTYSLSSTLTLSKADYEKHKVYACEVTHQGLSSPVTKSFNRGEC
notes: DVD-Ig; HC linker long, LC linker short; vectors V1/V2
B4: DVD651 (bispecific antibody, human IgG1, kappa)
heavy: not shown
light: DIQMTQSPSSVSASVGDRVTITCRASQGISSWLAWYQQKPGKAPNLLIYEASSLQSGVPSRFGGSGSGTDFTLTISSLQPEDFATYYCQQANGFPWTFGQGTKVEIKRTVAAPDIQMTQSPSSLSASVGDRVTITCRASQVIRRSLAWYQQKPGKAPKLLIYAASNLASGVPSRFSGSGSGTDFTLTISSLQPEDFATYYCQQSNTSPLTFGQGTKVEIKRTVAAPSVFIFPPSDEQLKSGTASVVCLLNNFYPREAKVQWKVDNALQSGNSQESVTEQDSKDSTYSLSSTLTLSKADYEKHKVYACEVTHQGLSSPVTKSFNRGEC
notes: DVD-Ig; N-term VD AB012 (HGF), C-term VD AB071 (VEGF); HC linker long, LC linker short; vectors V1/V2
B5: DVD655 (bispecific antibody, human IgG1, kappa)
heavy: not shown
light: DIQMTQSPSSVSASVGDRVTITCRASQGISSWLAWYQQKPGKAPNLLIYEASSLQSGVPSRFGGSGSGTDFTLTISSLQPEDFATYYCQQANGFPWTFGQGTKVEIKRTVAAPSVFIFPPDIQMTQSPSSLSASVGDRVTITCRASQDVSTAVAWYQQKPGKAPKLLIYSASFLYSGVPSRFSGSGSGTDFTLTISSLQPEDFATYYCQQSYTTPPTFGQGTKVEIKRTVAAPSVFIFPPSDEQLKSGTASVVCLLNNFYPREAKVQWKVDNALQSGNSQESVTEQDSKDSTYSLSSTLTLSKADYEKHKVYACEVTHQGLSSPVTKSFNRGEC
notes: DVD-Ig; HC linker short, LC linker long; vectors V1/V2
B6: DVD657 (bispecific antibody, human IgG1, kappa)
heavy: not shown
light: DIQMTQSPSSVSASVGDRVTITCRASQGISSWLAWYQQKPGKAPNLLIYEASSLQSGVPSRFGGSGSGTDFTLTISSLQPEDFATYYCQQANGFPWTFGQGTKVEIKRTVAAPSVFIFPPDIQMTQSPSSLSASVGDRVTITCRASQVIRRSLAWYQQKPGKAPKLLIYAASNLASGVPSRFSGSGSGTDFTLTISSLQPEDFATYYCQQSNTSPLTFGQGTKVEIKRTVAAPSVFIFPPSDEQLKSGTASVVCLLNNFYPREAKVQWKVDNALQSGNSQESVTEQDSKDSTYSLSSTLTLSKADYEKHKVYACEVTHQGLSSPVTKSFNRGEC
notes: DVD-Ig; N-term VD AB012 (HGF), C-term VD AB071 (VEGF); HC linker short, LC linker long; vectors V1/V2
B7: DVD661 (bispecific antibody, human IgG1, kappa)
heavy: not shown
light: DIQMTQSPSSLSASVGDRVTITCKASENVVSYVSWYQQKPGKAPKLLIYGASNRNTGVPSRFSGSGSGTDFTLTISSLQPEDFATYYCGQSYNYPYTFGQGTKLEIKRTVAAPDIQMTQSPSSLSASVGDRVTITCRASQDVSTAVAWYQQKPGKAPKLLIYSASFLYSGVPSRFSGSGSGTDFTLTISSLQPEDFATYYCQQSYTTPPTFGQGTKVEIKRTVAAPSVFIFPPSDEQLKSGTASVVCLLNNFYPREAKVQWKVDNALQSGNSQESVTEQDSKDSTYSLSSTLTLSKADYEKHKVYACEVTHQGLSSPVTKSFNRGEC
notes: DVD-Ig; HC linker short, LC linker short; vectors V1/V2
B8: DVD663 (bispecific antibody, human IgG1, kappa)
heavy: not shown
light: DIQMTQSPSSLSASVGDRVTITCKASENVVSYVSWYQQKPGKAPKLLIYGASNRNTGVPSRFSGSGSGTDFTLTISSLQPEDFATYYCGQSYNYPYTFGQGTKLEIKRTVAAPDIQMTQSPSSLSASVGDRVTITCRASQVIRRSLAWYQQKPGKAPKLLIYAASNLASGVPSRFSGSGSGTDFTLTISSLQPEDFATYYCQQSNTSPLTFGQGTKVEIKRTVAAPSVFIFPPSDEQLKSGTASVVCLLNNFYPREAKVQWKVDNALQSGNSQESVTEQDSKDSTYSLSSTLTLSKADYEKHKVYACEVTHQGLSSPVTKSFNRGEC
notes: DVD-Ig; N-term VD AB079 (HGF), C-term VD AB071 (VEGF); HC linker short, LC linker short; vectors V1/V2
B9: DVD667 (bispecific antibody, human IgG1, kappa)
heavy: not shown
light: DIQMTQSPSSLSASVGDRVTITCKASENVVSYVSWYQQKPGKAPKLLIYGASNRNTGVPSRFSGSGSGTDFTLTISSLQPEDFATYYCGQSYNYPYTFGQGTKLEIKRTVAAPSVFIFPPDIQMTQSPSSLSASVGDRVTITCRASQDVSTAVAWYQQKPGKAPKLLIYSASFLYSGVPSRFSGSGSGTDFTLTISSLQPEDFATYYCQQSYTTPPTFGQGTKVEIKRTVAAPSVFIFPPSDEQLKSGTASVVCLLNNFYPREAKVQWKVDNALQSGNSQESVTEQDSKDSTYSLSSTLTLSKADYEKHKVYACEVTHQGLSSPVTKSFNRGEC
notes: as for B1
B10: DVD669 (bispecific antibody, human IgG1, kappa)
heavy: not shown
light: DIQMTQSPSSLSASVGDRVTITCKASENVVSYVSWYQQKPGKAPKLLIYGASNRNTGVPSRFSGSGSGTDFTLTISSLQPEDFATYYCGQSYNYPYTFGQGTKLEIKRTVAAPSVFIFPPDIQMTQSPSSLSASVGDRVTITCRASQVIRRSLAWYQQKPGKAPKLLIYAASNLASGVPSRFSGSGSGTDFTLTISSLQPEDFATYYCQQSNTSPLTFGQGTKVEIKRTVAAPSVFIFPPSDEQLKSGTASVVCLLNNFYPREAKVQWKVDNALQSGNSQESVTEQDSKDSTYSLSSTLTLSKADYEKHKVYACEVTHQGLSSPVTKSFNRGEC
notes: DVD-Ig; N-term VD AB079 (HGF), C-term VD AB071 (VEGF); HC linker long, LC linker long; vectors V1/V2
B11: DVD678 (bispecific antibody, human IgG1, kappa)
heavy: not shown
light: DIQMTQSPSSLSASVGDRVTITCSASQDISNYLNWYQQKPGKAPKVLIYFTSSLHSGVPSRFSGSGSGTDFTLTISSLQPEDFATYYCQQYSTVPWTFGQGTKVEIKRTVAAPSVFIFPPDIQMTQSPSSLSASVGDRVTITCKASENVVSYVSWYQQKPGKAPKLLIYGASNRNTGVPSRFSGSGSGTDFTLTISSLQPEDFATYYCGQSYNYPYTFGQGTKLEIKRTVAAPSVFIFPPSDEQLKSGTASVVCLLNNFYPREAKVQWKVDNALQSGNSQESVTEQDSKDSTYSLSSTLTLSKADYEKHKVYACEVTHQGLSSPVTKSFNRGEC
notes: as for B5
B12: DVD680 (bispecific antibody, human IgG1, kappa)
heavy: not shown
light: DIQMTQSPSSLSASVGDRVTITCRASQDVSTAVAWYQQKPGKAPKLLIYSASFLYSGVPSRFSGSGSGTDFTLTISSLQPEDFATYYCQQSYTTPPTFGQGTKVEIKRTVAAPSVFIFPPDIQMTQSPSSLSASVGDRVTITCKASENVVSYVSWYQQKPGKAPKLLIYGASNRNTGVPSRFSGSGSGTDFTLTISSLQPEDFATYYCGQSYNYPYTFGQGTKLEIKRTVAAPSVFIFPPSDEQLKSGTASVVCLLNNFYPREAKVQWKVDNALQSGNSQESVTEQDSKDSTYSLSSTLTLSKADYEKHKVYACEVTHQGLSSPVTKSFNRGEC
notes: as for B5
B13: DVD682 (bispecific antibody, human IgG1, kappa)
heavy: not shown
light: DIQMTQSPSSLSASVGDRVTITCRASQVIRRSLAWYQQKPGKAPKLLIYAASNLASGVPSRFSGSGSGTDFTLTISSLQPEDFATYYCQQSNTSPLTFGQGTKVEIKRTVAAPSVFIFPPDIQMTQSPSSLSASVGDRVTITCKASENVVSYVSWYQQKPGKAPKLLIYGASNRNTGVPSRFSGSGSGTDFTLTISSLQPEDFATYYCGQSYNYPYTFGQGTKLEIKRTVAAPSVFIFPPSDEQLKSGTASVVCLLNNFYPREAKVQWKVDNALQSGNSQESVTEQDSKDSTYSLSSTLTLSKADYEKHKVYACEVTHQGLSSPVTKSFNRGEC
notes: DVD-Ig; N-term VD AB071 (VEGF), C-term VD AB079 (HGF); HC linker short, LC linker long; vectors V1/V2
B14: DVD710 (bispecific antibody, human IgG1, kappa)
heavy: not shown
light: DIQMTQSPSSLSASVGDRVTITCRASQDVSTAVAWYQQKPGKAPKLLIYSASFLYSGVPSRFSGSGSGTDFTLTISSLQPEDFATYYCQQSYTTPPTFGQGTKVEIKRTVAAPDIQMTQSPSSVSASVGDRVTITCRASQGISSWLAWYQQKPGKAPNLLIYEASSLQSGVPSRFGGSGSGTDFTLTISSLQPEDFATYYCQQANGFPWTFGQGTKVEIKRTVAAPSVFIFPPSDEQLKSGTASVVCLLNNFYPREAKVQWKVDNALQSGNSQESVTEQDSKDSTYSLSSTLTLSKADYEKHKVYACEVTHQGLSSPVTKSFNRGEC
notes: as for B7
B15: DVD712 (bispecific antibody, human IgG1, kappa)
heavy: not shown
light: DIQMTQSPSSLSASVGDRVTITCRASQVIRRSLAWYQQKPGKAPKLLIYAASNLASGVPSRFSGSGSGTDFTLTISSLQPEDFATYYCQQSNTSPLTFGQGTKVEIKRTVAAPDIQMTQSPSSVSASVGDRVTITCRASQGISSWLAWYQQKPGKAPNLLIYEASSLQSGVPSRFGGSGSGTDFTLTISSLQPEDFATYYCQQANGFPWTFGQGTKVEIKRTVAAPSVFIFPPSDEQLKSGTASVVCLLNNFYPREAKVQWKVDNALQSGNSQESVTEQDSKDSTYSLSSTLTLSKADYEKHKVYACEVTHQGLSSPVTKSFNRGEC
notes: DVD-Ig; N-term VD AB071 (VEGF), C-term VD AB012 (HGF); HC linker short, LC linker short; vectors V1/V2

Key:
[1] = target: T1, VEGF 1-165 aa (UniProt P15692 27-191); experiment: direct bind ELISA (C-term VD)
T1 construct: Bought antigen coated on the ELISA plate
T1 sequence (P15692 other isoform, or with tags, fused parts or gaps limits assumed): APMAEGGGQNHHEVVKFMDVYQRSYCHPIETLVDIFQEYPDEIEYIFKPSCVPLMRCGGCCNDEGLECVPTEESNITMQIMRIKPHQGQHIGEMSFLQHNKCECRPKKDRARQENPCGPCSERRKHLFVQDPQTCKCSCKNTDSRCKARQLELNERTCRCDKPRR
Protocol: (§1) Enzyme Linked Immunosorbent Assays to screen for antibodies that bind a desired target antigen were performed as follows. […] Plates were washed four times with PBS containing 0.02% Tween 20. Plates were blocked by the addition of 300 μL/well blocking solution (non-fat dry milk powder, various retail suppliers, diluted to 2% in PBS) for ½ hour at room temperature. Plates were washed four times after blocking with PBS containing 0.02% Tween 20.
(§2) Alternatively, one hundred microliters per well of 10 μg/ml of Histidine (His) tagged desired target antigen (R&D Systems, Minneapolis, Minn.) was added to ELISA plates coated with monoclonal mouse anti-polyHistidine antibody as described above and incubated for 1 hour at room temperature. Wells were washed four times with PBS containing 0.02% Tween 20.
(§3) Plates were washed 4 times with PBS containing 0.02% Tween 20.

[2] = target: T2, HGF-His tag (UniProt P14210 32-728); experiment: direct bind ELISA (N-term VD);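 also: ELISA screen of antibodies for binding to plate-immobilized target antigen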
T2 construct: Bought antigen coated on the ELISA plate; not shown: His tag
T2 sequence (P14210 32-728 limits assumed): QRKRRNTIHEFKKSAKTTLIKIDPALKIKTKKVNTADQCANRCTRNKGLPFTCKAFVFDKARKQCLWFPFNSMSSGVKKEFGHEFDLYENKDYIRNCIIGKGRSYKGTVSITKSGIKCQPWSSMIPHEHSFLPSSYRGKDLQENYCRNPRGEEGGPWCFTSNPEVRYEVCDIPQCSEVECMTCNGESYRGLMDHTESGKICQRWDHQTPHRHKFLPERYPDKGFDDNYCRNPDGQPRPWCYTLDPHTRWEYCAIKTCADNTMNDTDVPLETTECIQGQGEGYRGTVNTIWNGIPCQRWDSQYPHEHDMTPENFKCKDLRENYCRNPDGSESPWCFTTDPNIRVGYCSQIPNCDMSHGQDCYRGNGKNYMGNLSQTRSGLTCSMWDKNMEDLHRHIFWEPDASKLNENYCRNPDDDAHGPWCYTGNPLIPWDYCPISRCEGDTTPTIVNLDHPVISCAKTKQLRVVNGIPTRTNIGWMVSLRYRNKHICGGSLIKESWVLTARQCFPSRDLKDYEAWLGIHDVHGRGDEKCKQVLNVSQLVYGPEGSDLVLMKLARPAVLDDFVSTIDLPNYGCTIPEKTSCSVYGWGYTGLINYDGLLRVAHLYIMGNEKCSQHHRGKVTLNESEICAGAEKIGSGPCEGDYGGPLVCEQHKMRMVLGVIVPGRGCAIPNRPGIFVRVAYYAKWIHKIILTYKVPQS

[3] = target: T2, HGF-His tag; experiment: direct bind ELISA (C-term VD)
Protocol: as §1, §2, §3

[4] = target: T1, VEGF 1-165 aa; experiment: direct bind ELISA (N-term VD);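 also: ELISA screen of antibodies for binding to plate-immobilized target antigen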
Protocol: as §1, §2, §3

Row | Binder | EC50 [1] [nM] | EC50 [2] [nM] | EC50 [3] [nM] | EC50 [4] [nM]
1 | B1 | 175 | 0.26 |  | 
2 | B2 |  | 0.17 |  | 
3 | B3 | 186 | 0.15 |  | 
4 | B4 | 341 | 0.11 |  | 
5 | B5 | 92.9 | 0.19 |  | 
6 | B6 | 358 | 0.31 |  | 
7 | B7 | 566 | 0.7 |  | 
8 | B8 |  | 0.26 |  | 
9 | B9 | 51.3 | 0.33 |  | 
10 | B10 | 1660 | 0.29 |  | 
11 | B11 |  |  | 4.69 | 0.65
12 | B12 |  |  | 5.17 | 12.6
13 | B13 |  |  | 6.55 | 53.1
14 | B14 |  |  | 17.8 | 2.43
15 | B15 |  |  | 37.2 | 64.2
